This passage reports Kd results from PMC3235159.

For one assay, the target named is TGF-β1 (Homo sapiens) (UniProt P01137). The conditions noted are these: cited from earlier work.
Assay [1] concerns the target Purified LRP1 (LDL receptor-related protein 1) (UniProt Q07954). Description: SPR; purified LRP1 immobilised on a CM5 chip by amine coupling (5.8 fmol/mm^2, 3,500 RU); TGF-β2 flowed at 6, 12, 15, 50, 100 and 200 nM; HBS-P pH 7.4, 0.005% Tween 20, 1 mM CaCl2, 20 µl/min, 25°C; Rmax of pseudo-first order fits replotted against concentration and fit to a single class of sites. (In SPR one partner is held on a chip, and binding of the other changes the refractive index at the surface.)

TGF-β1 (Homo sapiens), sequence (P01137 279-390): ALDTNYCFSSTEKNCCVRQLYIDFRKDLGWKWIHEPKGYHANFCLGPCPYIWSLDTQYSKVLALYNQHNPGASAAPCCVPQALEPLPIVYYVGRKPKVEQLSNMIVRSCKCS
LRP1, sequence (Q07954 20-4544): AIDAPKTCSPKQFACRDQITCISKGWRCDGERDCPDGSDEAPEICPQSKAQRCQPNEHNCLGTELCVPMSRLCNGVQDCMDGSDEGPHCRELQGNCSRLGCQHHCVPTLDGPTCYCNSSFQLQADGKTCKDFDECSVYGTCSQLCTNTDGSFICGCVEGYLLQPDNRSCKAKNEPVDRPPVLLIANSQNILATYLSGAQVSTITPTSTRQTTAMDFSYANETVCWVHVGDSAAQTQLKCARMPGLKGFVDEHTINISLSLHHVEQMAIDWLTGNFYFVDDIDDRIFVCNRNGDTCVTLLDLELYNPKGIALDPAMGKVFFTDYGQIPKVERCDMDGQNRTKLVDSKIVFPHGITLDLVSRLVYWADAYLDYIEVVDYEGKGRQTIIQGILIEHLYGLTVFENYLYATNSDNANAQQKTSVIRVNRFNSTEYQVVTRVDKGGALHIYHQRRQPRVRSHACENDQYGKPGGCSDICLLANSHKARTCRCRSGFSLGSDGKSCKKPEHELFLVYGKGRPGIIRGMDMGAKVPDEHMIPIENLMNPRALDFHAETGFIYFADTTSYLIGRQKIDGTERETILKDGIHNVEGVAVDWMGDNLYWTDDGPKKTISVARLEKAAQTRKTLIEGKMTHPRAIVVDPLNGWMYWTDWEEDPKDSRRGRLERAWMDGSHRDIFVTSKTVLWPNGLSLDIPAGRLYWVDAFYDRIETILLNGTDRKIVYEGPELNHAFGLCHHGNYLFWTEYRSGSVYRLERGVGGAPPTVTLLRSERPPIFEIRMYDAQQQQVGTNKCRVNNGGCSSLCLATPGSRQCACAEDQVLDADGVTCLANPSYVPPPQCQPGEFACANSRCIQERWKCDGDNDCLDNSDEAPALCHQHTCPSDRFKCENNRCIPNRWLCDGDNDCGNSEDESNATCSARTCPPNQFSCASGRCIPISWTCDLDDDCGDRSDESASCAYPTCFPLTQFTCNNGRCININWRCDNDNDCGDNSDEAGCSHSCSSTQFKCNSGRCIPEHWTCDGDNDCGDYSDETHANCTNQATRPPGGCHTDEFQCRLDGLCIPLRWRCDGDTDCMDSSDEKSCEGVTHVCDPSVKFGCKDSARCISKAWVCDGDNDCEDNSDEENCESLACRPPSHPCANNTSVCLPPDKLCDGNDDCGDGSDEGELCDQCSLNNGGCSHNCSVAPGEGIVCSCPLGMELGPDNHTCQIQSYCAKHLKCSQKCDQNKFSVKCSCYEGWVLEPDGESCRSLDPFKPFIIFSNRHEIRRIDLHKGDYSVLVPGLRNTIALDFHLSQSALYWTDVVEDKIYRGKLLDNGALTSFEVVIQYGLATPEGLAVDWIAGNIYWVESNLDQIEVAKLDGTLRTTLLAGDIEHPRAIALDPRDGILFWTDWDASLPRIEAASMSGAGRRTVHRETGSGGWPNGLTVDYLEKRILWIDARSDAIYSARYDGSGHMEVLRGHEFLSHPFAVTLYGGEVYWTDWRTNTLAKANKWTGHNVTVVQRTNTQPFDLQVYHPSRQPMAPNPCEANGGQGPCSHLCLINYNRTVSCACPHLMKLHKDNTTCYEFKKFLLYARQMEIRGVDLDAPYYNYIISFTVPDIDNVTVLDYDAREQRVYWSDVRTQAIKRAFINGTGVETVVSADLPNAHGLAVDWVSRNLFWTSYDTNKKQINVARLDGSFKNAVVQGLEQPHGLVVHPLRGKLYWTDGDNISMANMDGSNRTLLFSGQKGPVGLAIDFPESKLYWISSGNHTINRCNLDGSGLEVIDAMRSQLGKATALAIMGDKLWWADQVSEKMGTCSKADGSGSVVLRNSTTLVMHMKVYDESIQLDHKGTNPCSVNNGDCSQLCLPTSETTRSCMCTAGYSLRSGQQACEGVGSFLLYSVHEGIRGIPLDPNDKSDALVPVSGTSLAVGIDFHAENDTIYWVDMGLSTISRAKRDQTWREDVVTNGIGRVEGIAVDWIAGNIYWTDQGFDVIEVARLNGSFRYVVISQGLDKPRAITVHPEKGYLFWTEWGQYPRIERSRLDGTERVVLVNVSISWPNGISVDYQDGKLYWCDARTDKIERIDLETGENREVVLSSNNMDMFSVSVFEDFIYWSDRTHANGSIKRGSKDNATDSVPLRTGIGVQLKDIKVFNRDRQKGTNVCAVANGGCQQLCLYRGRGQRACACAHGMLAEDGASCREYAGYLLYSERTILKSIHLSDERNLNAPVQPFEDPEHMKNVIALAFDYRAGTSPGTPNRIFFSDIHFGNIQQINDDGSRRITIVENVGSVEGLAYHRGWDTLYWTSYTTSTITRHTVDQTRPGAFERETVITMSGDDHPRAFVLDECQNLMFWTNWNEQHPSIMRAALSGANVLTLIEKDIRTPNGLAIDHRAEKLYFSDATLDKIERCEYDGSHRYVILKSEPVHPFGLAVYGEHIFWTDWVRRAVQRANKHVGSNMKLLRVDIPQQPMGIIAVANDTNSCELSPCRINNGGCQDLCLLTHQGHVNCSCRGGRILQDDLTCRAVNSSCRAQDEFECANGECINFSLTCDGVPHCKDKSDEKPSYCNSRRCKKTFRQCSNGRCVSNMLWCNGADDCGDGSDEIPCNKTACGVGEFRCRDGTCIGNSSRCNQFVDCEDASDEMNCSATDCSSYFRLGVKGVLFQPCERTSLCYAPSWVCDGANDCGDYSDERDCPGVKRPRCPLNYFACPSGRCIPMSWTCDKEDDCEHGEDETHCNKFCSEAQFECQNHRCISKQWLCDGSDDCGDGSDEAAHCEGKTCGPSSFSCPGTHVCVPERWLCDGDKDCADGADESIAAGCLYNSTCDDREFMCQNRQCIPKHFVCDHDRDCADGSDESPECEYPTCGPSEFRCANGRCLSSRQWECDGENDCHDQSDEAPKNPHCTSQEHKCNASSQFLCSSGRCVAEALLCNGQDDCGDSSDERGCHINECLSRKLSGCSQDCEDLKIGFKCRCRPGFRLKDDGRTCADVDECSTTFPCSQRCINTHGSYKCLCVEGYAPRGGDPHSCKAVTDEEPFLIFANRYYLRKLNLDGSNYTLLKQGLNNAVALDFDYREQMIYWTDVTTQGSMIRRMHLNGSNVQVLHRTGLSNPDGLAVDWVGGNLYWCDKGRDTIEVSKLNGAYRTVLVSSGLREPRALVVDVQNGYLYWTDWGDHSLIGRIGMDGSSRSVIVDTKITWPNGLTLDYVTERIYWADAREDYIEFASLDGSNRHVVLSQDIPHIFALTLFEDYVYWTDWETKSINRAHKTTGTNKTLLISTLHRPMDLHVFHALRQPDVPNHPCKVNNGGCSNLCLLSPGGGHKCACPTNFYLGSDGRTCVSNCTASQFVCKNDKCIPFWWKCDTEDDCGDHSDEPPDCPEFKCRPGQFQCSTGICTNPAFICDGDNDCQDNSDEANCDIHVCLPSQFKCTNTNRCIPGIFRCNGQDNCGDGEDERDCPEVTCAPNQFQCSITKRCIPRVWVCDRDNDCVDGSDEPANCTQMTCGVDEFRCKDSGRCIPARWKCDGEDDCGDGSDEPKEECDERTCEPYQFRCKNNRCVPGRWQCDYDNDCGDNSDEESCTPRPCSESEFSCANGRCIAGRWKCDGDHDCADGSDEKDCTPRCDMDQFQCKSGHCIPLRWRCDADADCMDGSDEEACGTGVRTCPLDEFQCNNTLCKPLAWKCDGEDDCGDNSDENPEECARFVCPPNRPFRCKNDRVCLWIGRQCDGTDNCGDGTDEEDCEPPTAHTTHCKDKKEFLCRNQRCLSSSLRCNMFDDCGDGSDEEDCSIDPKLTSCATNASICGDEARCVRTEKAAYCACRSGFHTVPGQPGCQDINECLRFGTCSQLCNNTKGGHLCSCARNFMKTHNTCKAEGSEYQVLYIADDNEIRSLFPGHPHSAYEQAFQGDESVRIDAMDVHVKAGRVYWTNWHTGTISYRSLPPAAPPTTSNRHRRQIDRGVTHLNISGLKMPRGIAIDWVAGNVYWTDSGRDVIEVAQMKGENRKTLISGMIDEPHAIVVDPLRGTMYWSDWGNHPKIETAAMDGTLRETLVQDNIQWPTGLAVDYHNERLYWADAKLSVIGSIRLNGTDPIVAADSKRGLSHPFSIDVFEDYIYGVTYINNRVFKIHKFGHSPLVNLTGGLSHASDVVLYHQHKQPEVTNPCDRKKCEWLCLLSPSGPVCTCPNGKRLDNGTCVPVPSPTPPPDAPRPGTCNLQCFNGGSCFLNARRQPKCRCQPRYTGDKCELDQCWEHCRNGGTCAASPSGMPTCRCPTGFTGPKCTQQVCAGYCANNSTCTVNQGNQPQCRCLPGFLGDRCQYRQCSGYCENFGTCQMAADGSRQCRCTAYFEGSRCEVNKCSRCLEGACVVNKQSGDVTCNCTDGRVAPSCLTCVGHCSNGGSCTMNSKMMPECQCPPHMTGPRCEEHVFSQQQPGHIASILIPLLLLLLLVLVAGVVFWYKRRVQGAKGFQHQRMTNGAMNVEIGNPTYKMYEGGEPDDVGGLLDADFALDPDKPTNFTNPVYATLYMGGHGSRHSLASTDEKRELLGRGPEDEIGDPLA
Purified LRP1 (LDL receptor-related protein 1), sequence (Q07954 20-4544): as above

For orientation: Kd means the constant that tells how readily two partners part at equilibrium. In the case of LRP1 (from UniProt Q07954), the dissociation constant Kd with TGF-β1 (Homo sapiens) was 0.157 µM.
Take TGF-β2 (Sigma) (ligand): in assay [1], the Kd turned out to be 0.222 µM.
